Measurements published in patent US20100172907A1.

Assays:
Experiment in all cases: ELISA
[1] = target: BSA-conjugated Aβ heptapeptide AEFRHDC
[2] = target: BSA-conjugated Aβ heptapeptide FFAEDVC
[3] = target: BSA-conjugated Aβ heptapeptide LVFFAEC
[4] = target: BSA-conjugated Aβ heptapeptide VFFAEDC

OD ratio 2-7/BSA [1] | OD ratio 19-24/BSA [2] | Peptide-ratio 19-24/2-7 [2] | OD ratio 17-22/BSA [3] | Peptide-ratio 17-22/2-7 [3] | OD ratio 18-23/BSA [4] | Peptide-ratio 18-23/2-7 [4] | Substance
18 | 1 | 0.06 | 1 | 0.06 | 1 | 0.06 | 6E10 (antibody)
16 | 3 | 0.19 | 2 | 0.13 | 1 | 0.06 | AMY-33 (antibody)
1 | 1 | 1 | 23 | 23 | 20 | 20 | 4G8 (antibody)
